From US20250026791A1, “CYCLIC PEPTIDE CYCLIZED IN AROMATIC NUCLEOPHILIC SUBSTITUTION REACTION, AND PEPTIDE LIBRARY, PRODUCTION METHOD, AND SCREENING METHOD FOR SAME” (UNIVERSITY OF YAMANASHI, priority 2021, published 2025)
*1 amine or outer side, *2 acyl side, *3 side chain or, on linkers, in order; H or OH if unused. Where no end group is shown, it is not given here. The star is where a group is joined. Lys(Biotin) = O=C(CCCC[C@@H]1SC[C@@H]2NC(=O)N[C@@H]21)NCCCC[C@H](N[*:1])C(=O)[*:2]; F5Ph = Fc1c(F)c(F)c(*)c(F)c1F; FNO2Ph = not defined here; Ahx = NCCCCCC(=O)O

What was measured:
Assay type in all cases: binding
PCSK9 [1] = target: T1, PCSK9 (Homo sapiens, UniProt Q8NBP7); experiment: Collection rate of cDNA/mRNA presenting cyclized peptide against PCSK9-immobilized beads; conditions: for collection rate against PCSK9, Peptide 2 (WT) versus Peptide 3 (C17S): FIG. 13, C17 replaced with serine
T1 sequence (Q8NBP7 153-692): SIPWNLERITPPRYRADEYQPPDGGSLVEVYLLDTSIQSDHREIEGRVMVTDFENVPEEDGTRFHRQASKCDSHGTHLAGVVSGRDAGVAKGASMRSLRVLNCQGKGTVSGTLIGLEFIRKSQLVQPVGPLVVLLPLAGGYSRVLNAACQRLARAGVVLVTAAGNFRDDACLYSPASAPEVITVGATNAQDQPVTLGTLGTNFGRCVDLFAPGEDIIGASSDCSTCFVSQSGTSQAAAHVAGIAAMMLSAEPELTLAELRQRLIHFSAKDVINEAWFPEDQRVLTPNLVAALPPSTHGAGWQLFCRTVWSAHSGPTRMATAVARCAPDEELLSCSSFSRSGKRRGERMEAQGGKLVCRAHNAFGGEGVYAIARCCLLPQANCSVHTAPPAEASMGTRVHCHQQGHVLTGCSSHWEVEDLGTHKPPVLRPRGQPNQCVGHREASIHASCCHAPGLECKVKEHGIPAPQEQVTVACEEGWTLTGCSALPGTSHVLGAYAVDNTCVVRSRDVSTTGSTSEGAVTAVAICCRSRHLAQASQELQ
Procedure: Site-specific biotinylated human PCSK9 was immobilized on streptavidin-modified magnetic beads. Fc fusion protein of human PCSK9 was immobilized on protein A-modified magnetic beads. Immobilization of PCSK9 was confirmed by sodium dodecyl sulfate polyacrylamide gel electrophoresis and staining with Coomassie brilliant blue.
Each of the mRNA-presenting FNO2Ph and F5Ph cyclized peptide libraries was incubated with PCSK9-immobilized streptavidin-modified beads as positive selection. After removal of the supernatant, the beads were washed with HBS-T. cDNA encoding the peptide binding to the PCSK9-immobilized beads was PCR amplified with Taq DNA polymerase. The amplified PCR product was used for the next round of SELEX.
After the positive selection, cDNA encoding peptides that bind to PCSK9 immobilized beads was amplified by PCR and quantified by qPCR using SYBR green.
Each collection rate of the cDNA/mRNA presenting FNO2Ph cyclized peptide with the amino acid sequence of SEQ ID: 4 (hereafter referred to as Peptide 1) and the cDNA/mRNA presenting F5Ph cyclized peptide with the amino acid sequence of SEQ ID: 14 (hereafter referred to as Peptide 2) against PCSK9 was determined. […] beads were used as negative controls.
Peptide 3 (SEQ ID: 27) was prepared by replacing C17 in Peptide 2 (F5Ph is the first amino acid) with serine. Each collection rate of Peptide 2 (WT) and Peptide 3 (C17S) against PCSK9 was measured (FIG. 13).

PCSK9 [2] = target: T1, PCSK9; experiment: HRP-labeled peptide pulled down with PCSK9-immobilized beads, chemiluminescence detection; conditions: without presentation by cDNA-mRNA dimer, FIGS. 16, 17, 25
Procedure: Peptide 1-1 and Peptide 2-1 were labeled via horseradish peroxidase (HRP)-labeled streptavidin. Each peptide of HRP-labeled Peptide 1-1 and Peptide 2-1 was pulled down with PCSK9-immobilized beads. HRP substrate was added to PCSK9-immobilized beads and chemiluminescence was detected using LuminoGraph III (ATTO).
The PCSK9 binding activity of HRP-labeled Peptide 1-1 (monomer) and the dimer of Peptide 1-1 (Peptide A) were analyzed by PCSK9 pull-down and chemiluminescence detection.
Peptide C was labeled via HRP-labeled streptavidin. Based on the same method as in Experimental Example 7, the PCSK9 binding activity of HRP-labeled Peptide C was analyzed by PCSK9 pulldown and chemiluminescence detection.

His-tagged PCSK9 = His-tagged PCSK9 (Homo sapiens, UniProt Q8NBP7); experiment: His-tagged PCSK9 (HRP-conjugated anti-His-tag antibody) pulled down with peptide-immobilized streptavidin beads, chemiluminescence detection; conditions: peptide on streptavidin beads pulls down His-tagged PCSK9; FIGS. 18 and 19
Chain of His-tagged PCSK9 (Q8NBP7 153-692): as above
Procedure: Each of Peptide 1-1 and peptide 2-1 was conjugated to streptavidin beads. His-tagged PCSK9 was labeled via HRP-conjugated anti-His-tagged antibody. The complex of PCSK9 and HRP was pulled down with Peptide 1-1 or Peptide 2-1 immobilized beads. HRP substrates were added to the peptide-immobilized beads and chemiluminescence was detected using LuminoGraph III (ATTO).

human IL-5 = experiment: Collection rate of cDNA/mRNA presenting cyclized peptide against IL-5; conditions: compared with IL-5 non-immobilized beads (FIGS. 29 and 30)
Chain of human IL-5 (P05113 20-134): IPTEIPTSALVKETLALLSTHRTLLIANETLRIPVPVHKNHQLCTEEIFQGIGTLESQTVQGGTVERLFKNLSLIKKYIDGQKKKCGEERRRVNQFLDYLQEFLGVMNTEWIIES
Procedure: We checked whether the screening in Experimental Example 2 is applicable to compounds other than human PCSK9. Screening was performed for peptides that bind to human IL-5 as compounds other than human PCSK9.
Each collection rate of cDNA/mRNA presenting FNO2Ph cyclized peptide with the amino acid sequence of SEQ ID: 66 (hereafter referred to as Peptide 4) and cDNA/mRNA presenting F5Ph cyclized peptide with the amino acid sequence of SEQ ID: 69 (hereafter referred to as Peptide 5) against IL-5 was determined. IL-5 non-immobilized beads were used as a negative control. […] From the above, it was possible to screen for human IL-5 which is a compound other than human PCSK9.

Row | Substance | collection rate against PCSK9, Peptide 2 (WT) versus Peptide 3 (C17S) (PCSK9 [1]) | PCSK9 binding activity (PCSK9 [2]) | collection rate against IL-5 (human IL-5) | also measured
1 | Peptide 3: SEQ ID: 27; C17 in Peptide 2 (F5Ph is the first amino acid) replaced with serine (F5Ph-RGHCWLYVYFPVRSLS; thioether (positions not given here); not fully specified (bridges)) | C17 in Peptide 2 was found to be critical for Peptide 2 binding to PCSK9 |  |  | 
2 | Peptide 2-1: chemically synthesized FNO2Ph cyclized peptide (as printed), SEQ ID: 14, C-terminal spacer of three Ahx and biotinylated lysine (RGHCWLYVYFPVRSLC-{Ahx-Ahx-Ahx-K(biotin)-NH2}; thioether (positions not given here); not fully specified (N-terminus, bridges); also: FNO2Ph cyclization, places not given here) |  | have binding activity to PCSK9 |  | PCSK9 binding activity (His-tagged PCSK9): have binding activity to PCSK9
3 | Peptide 5: F5Ph cyclized peptide with amino acid sequence of SEQ ID: 69 (HSPFTFQHC), cDNA/mRNA presented (bridge (positions not given here) via F5Ph; also: F5Ph cyclization, places not given here) |  |  | higher than those of the negative control | 
4 | Peptide 4: FNO2Ph cyclized peptide with amino acid sequence of SEQ ID: 66 (LLLMWCAVLVVLRWRRR), cDNA/mRNA presented (bridge (positions not given here) via FNO2Ph; reading uncertain; also: FNO2Ph cyclization, places not given here) |  |  | higher than those of the negative control | 
5 | Peptide 2: F5Ph cyclized peptide with amino acid sequence of SEQ ID: 14 (RGHCWLYVYFPVRSLC), cDNA/mRNA presented (F5Ph-RGHCWLYVYFPVRSLC; thioether (positions not given here); not fully specified (bridges)) | C17 in Peptide 2 was found to be critical for Peptide 2 binding to PCSK9 |  |  | collection rate against PCSK9 (PCSK9 [1]; cDNA/mRNA presenting peptide, compared with negative control beads (FIGS. 10 and 11)): higher than that of the negative control
6 | Peptide C: FNO2Ph cyclized peptide, SEQ ID: 35: two methionines of SEQ ID: 28 replaced with isoleucine; three Ahx spacer, biotinylated lysine (RWRFYSGIRNREIDC-{Ahx-Ahx-Ahx-Lys(Biotin)-NH2}; not fully specified (N-terminus, bridges); also: FNO2Ph cyclization, places not given here) |  | have binding activity for PCSK9 |  | 
